The target of data set [1] is T1, LeuO (Vibrio parahaemolyticus) (UniProt Q87SS2).
T1 sequence: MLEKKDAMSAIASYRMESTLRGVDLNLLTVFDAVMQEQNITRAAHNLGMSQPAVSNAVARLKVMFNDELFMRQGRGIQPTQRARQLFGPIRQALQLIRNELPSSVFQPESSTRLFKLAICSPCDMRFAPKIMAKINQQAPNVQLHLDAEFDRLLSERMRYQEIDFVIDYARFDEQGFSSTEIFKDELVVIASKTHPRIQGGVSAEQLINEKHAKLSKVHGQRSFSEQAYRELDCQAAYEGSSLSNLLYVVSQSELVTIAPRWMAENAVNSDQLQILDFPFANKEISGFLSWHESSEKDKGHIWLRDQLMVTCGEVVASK
The data set is described as follows: EMSA. Background: Mobility shift assays separate free from complexed probe on a gel.

In data set [2] the target is T2, NhaR (Vibrio parahaemolyticus) (UniProt Q87S97).
T2 sequence: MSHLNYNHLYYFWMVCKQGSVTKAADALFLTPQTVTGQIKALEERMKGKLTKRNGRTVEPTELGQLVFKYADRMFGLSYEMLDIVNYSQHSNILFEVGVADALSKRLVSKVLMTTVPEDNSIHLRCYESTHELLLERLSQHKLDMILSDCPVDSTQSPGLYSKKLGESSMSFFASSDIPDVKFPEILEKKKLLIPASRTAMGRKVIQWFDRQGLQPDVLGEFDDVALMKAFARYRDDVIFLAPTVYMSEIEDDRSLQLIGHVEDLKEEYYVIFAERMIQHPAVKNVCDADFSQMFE
The data set is described as follows: EMSA.

“CCAAGGTGCTGATGTGATCATTTTGAAATACATATCCTTTGACGTCTAATTAAATTTCGTATTTATTATGGACATTCTTTACGGTTGAAAATCAAATAATCTGCGTTTTAATCTGGATTAATGTG (double strand) [PectA probe 1A]”: the binding result in data set [1] and in data set [2] was “binds” each time.

For the sequence “CCACGACGACAAAACTAACCTTAAAACGGCATGCGAAAGTGTGCCGTTTTTTTATGTAAAAAACCTTAAGTCCCCTCTTTGAAACCCCACTGCATTCTGACTCAT (double strand) [PectA probe 1C]”, the binding entry in data set [1] and in data set [2] was “binds” in each case.

The values above are taken from paper doi:10.1101/2022.11.11.516238.
